Results taken from publication PMC8415103 (Biochemistry, 2021).
Blank lines part the entries; values can stand above or below the molecule they belong to.

How the values were obtained:
[1] = target: NikS (Streptomyces tendae, UniProt Q9F2E5); experiment: steady-state amide ligation kinetics, substrate inhibition model; type: biochemical; settings: HPHT as co-substrate
[2] = substrate: N[C@H](C(=O)O)[C@H]1O[C@@H](n2ccc(=O)[nH]c2=O)[C@H](OP(=O)(O)O)[C@@H]1O; experiment: as above; type: biochemical, Streptomyces tendae; settings: HPHT as co-substrate
[3] = substrate: N[C@H](C(=O)O)[C@H]1O[C@@H](n2cc(C(=O)O)c(=O)[nH]c2=O)[C@H](O)[C@@H]1O; experiment: steady-state amide ligation kinetics, Michaelis-Menten fit; type: biochemical, Streptomyces asoensis; settings: 200 μM CPOAA, 1 mM ATP, 3 mM MgCl2
[4] = substrate: N[C@H](C(=O)O)[C@H]1O[C@@H](n2ccc(=O)[nH]c2=O)[C@H](O)[C@@H]1O; experiment: as above; type: biochemical, Streptomyces asoensis; settings: 200 μM CPOAA, 1 mM ATP, 3 mM MgCl2
[5] = substrate: N[C@H](C(=O)O)[C@H]1O[C@@H](n2ccc(=O)[nH]c2=O)[C@H](OP(=O)(O)O)[C@@H]1O; experiment: as above; type: biochemical, Streptomyces asoensis; settings: 200 μM CPOAA, 1 mM ATP, 3 mM MgCl2

Ki [1]: 111 ± 38 µM
Molecule: N[C@H](C(=O)O)[C@H]1O[C@@H](n2ccc(=O)[nH]c2=O)[C@H](OP(=O)(O)O)[C@@H]1O [compound 6, AHAP]

B1: NikS (Streptomyces tendae) (protein)
chain: MKAEQGPFLLLNTKKIVSRLHEWFPDAARELVVVTTKADIPSADISAYARRFLHLEVVPNLWELSDDELLALARRFGVRRILSLGEREVLRAARIRAELGLPGQSLASATAYRDKHVMKSTLAAAGIDVAPMRKFRTNDDLAEFAWKVGFPVVVKELDSGASNGTVVLMDEEDLRALPERATAAPRLAEAWVEGDFYHVNGLMKDGEVVLAVPSRNLYSDWFSVAYDAPTMTGMMPDDHPLSERLRSTARQVVAALPAVPDLCAFHLELFHTADDRVVVCEIACRAGAALVSDVHEAVLGVNFHGASLLGQAGRGDQVEIRPTGERLGFVWFPPAKGVLRALPDTCPLPGTVSYRPCGDIGRRYGSSSGLGRPIAEMVFRLTEPDTGAELRRIEEWWDDNVVWEHRTNAVPDRWKTPRRKPADA
Km [2]: 10.9 ± 2.6 µM
kcat [2]: 0.0283 ± 0.005 s⁻¹

B2: PolG (Streptomyces asoensis) (protein)
chain: MFLLLNNKPILHRVPEWFPQARQELIVVSTRSGLGTSAFPELARGFRHLHLVSSLDRPGLEEDLVALCRRFGVRRVLSTGEREVLPAATLRERLGLPGQDVACATAYRDKYTMKSLLTEAGIPVAPMRRLASPADLDAFADEAGFPLVVKSRLSGGSNGTRVLWDGDALTAFTDDWAAGRTAAPDLAEAWVEGDFYHINGLMRDGRILLAQPSYQPYSDWFSVAYDAPGMSGMMPDEDPMSARLRDTAAKVVATMPAVPGVCAFQVEFFHTPDDRLVVCETACRAGGSRMVETHEDTLGVHLHGASLLGQAGRSDQVTIRPTGRRQGYARFPSAHGVLRHLPRRSPLPQTLLYTATGEEGRHYDPATSLGSSVAEIVVSLTGPDTAAELLAVETWWESAVVWQDRRNPVPDRFKSVHRVRPDTRERALHV
Km [3]: 334 ± 68 µM
kcat [3]: 0.0233 ± 0.0067 s⁻¹
Km [4]: 931 ± 122 µM
kcat [4]: 0.0112 ± 0.00067 s⁻¹
Km [5]: 9.1 ± 0.4 µM
kcat [5]: 0.0583 ± 0.0033 s⁻¹
